Laboratory results taken from US20220106400A1 (Bristol-Myers Squibb, published 2022).
Read-outs that look alike come from different tables or passages of the source.

T1: human CD73 on human tumor cell lines (human, UniProt P21589 27-549)
T1 sequence (looked up): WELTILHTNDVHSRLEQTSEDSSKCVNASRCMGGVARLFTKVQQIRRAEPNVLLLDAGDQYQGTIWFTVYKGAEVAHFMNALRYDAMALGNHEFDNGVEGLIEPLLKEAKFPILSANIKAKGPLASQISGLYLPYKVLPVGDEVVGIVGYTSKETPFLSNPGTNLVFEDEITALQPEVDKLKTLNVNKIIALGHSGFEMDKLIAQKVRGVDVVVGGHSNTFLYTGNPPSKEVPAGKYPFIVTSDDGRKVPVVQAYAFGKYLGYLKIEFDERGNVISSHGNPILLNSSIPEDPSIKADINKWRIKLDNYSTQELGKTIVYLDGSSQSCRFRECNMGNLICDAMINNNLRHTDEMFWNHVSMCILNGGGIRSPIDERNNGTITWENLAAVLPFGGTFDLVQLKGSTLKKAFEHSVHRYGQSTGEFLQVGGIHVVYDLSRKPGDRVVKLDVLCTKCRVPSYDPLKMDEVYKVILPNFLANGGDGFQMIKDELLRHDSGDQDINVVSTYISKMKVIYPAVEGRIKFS

T2: full length extracellular domain of human-CD73 with C-terminal polyhistidine tag (residues 26-546) (human, UniProt P21589 26-546)
T2 construct: range 26-546; also called hCD73-his; CD73-his
T2 sequence (looked up): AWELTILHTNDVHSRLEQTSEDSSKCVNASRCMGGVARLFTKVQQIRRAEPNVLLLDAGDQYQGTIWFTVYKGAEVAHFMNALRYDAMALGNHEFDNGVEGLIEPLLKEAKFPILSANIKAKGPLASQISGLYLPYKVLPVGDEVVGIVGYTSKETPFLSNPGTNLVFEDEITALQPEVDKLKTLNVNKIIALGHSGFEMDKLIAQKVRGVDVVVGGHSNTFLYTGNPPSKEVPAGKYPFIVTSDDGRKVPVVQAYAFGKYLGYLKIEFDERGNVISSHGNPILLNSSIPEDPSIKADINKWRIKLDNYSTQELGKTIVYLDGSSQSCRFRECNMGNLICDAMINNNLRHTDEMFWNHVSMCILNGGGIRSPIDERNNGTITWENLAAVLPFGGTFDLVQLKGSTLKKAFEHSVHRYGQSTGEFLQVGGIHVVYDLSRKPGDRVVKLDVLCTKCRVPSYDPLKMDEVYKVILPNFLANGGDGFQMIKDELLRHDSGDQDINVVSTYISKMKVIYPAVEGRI


Assays:
[1] = target: T1, human CD73 on human tumor cell lines; assay: cell-based or functional assay
[2] = target: T1, human CD73 on human tumor cell lines; assay: cell-based or functional assay; remark: listed apart in the source
[3] = target: T2, full length extracellular domain of …; assay: SEC, 1:1 molar mix 5.5 uM each
Procedure: The oligomeric state of CD73/antibody complexes were examined by size-exclusion chromatography coupled to an in-line multi-angle light scattering detector (SEC-MALS). Isocratic separations were performed on a Shodex PROTEIN KW-803 column connected to an Prominence Shimadzu UFLC in buffer containing 200 mM K₂HPO₄, 150 mM NaCl, pH 6.8, containing 0.02% Na azide (0.1 μm filtered) running at 0.5 mL/min. Samples were injected onto the column using a SIL-20AC Prominence Shimadzu autosampler, and data were obtained from three online detectors connected in series: a Prominence SPD-20AD diode array UV/vis spectrophotometer followed by a Wyatt miniDAWN™ TREOS Multi-Angle Light Scattering Detector then a Wyatt Optilab T-rEX Refractive Index Detector. Data were collected and analyzed using Astra (Wyatt) and Labsolutions (Shimadzu) software.
CD73.4 antibodies having the heavy chain constant regions set forth in Table 14 were also tested for formation of high molecular weight complexes by SEC-MALS and DLS experiments, as described in Example 3.

Binder	T1/2 internalization, Calu6 [1] [min]	T1/2 internalization, NCI-H292 [1] [min]	Ymax internalization, Calu6 [1] [%]	Ymax internalization, NCI-H292 [1] [%]	T1/2 internalization, Calu6 [2] [min]	T1/2 internalization, NCI-H292 [2] [min]	T1/2 internalization, NCI-H1437 [2] [min]	T1/2 internalization, NCI-H1437 (no wash) [2] [min]	T1/2 internalization, SNU-C1 [2] [min]	T1/2 internalization, SNU-C1 (no wash) [2] [min]	Ymax internalization, Calu6 [2] [%]	Ymax internalization, NCI-H292 [2] [%]	UV % Peak1 <12.9 min [3] [%]	UV % Peak4 16.7-19.3 min (free mAb) [3] [%]	UV % Peak5 >19.3 min [3] [%]
CD73.4-IgG2.5G1-KH (antibody, also called mAb-CD73.4-IgG2.5G1-KH; CD73.4-Vh-hHC-IgG2.5G1-KH) heavy: QVQLVESGGGVVQPGRSLRLSCAASGFTFSNYGMHWVRQAPGKGLEWVAVILYDGSNKYYPDSVKGRFTISRDNSKNTLYLQMNSLRAEDTAVYYCARGGSSWYPDSFDIWGQGTMVTVSSASTKGPSVFPLAPSSRSTSESTAALGCLVKDYFPEPVTVSWNSGALTSGVHTFPAVLQSSGLYSLSSVVTVPSSNFGTQTYTCNVDHKPSNTKVDKTVERKCCVECPPCPAPPVAGPSVFLFPPKPKDTLMISRTPEVTCVVVDVSHEDPEVKFNWYVDGVEVHNAKTKPREEQYNSTYRVVSVLTVLHQDWLNGKEYKCKVSNKALPAPIEKTISKAKGQPREPQVYTLPPSREEMTKNQVSLTCLVKGFYPSDIAVEWESNGQPENNYKTTPPVLDSDGSFFLYSKLTVDKSRWQQGNVFSCSVMHEALHNHYTQKSLSLSPGK light: not shown	17	15.4	76	90.8											
CD73.4-IgG2-C219S-IgG1.1f (antibody, also called CD73.4-IgG2CS-IgG1.1f; CD73.4-IgG2.3G1.1f-KH) heavy: QVQLVESGGGVVQPGRSLRLSCAASGFTFSNYGMHWVRQAPGKGLEWVAVILYDGSNKYYPDSVKGRFTISRDNSKNTLYLQMNSLRAEDTAVYYCARGGSSWYPDSFDIWGQGTMVTVSSASTKGPSVFPLAPCSRSTSESTAALGCLVKDYFPEPVTVSWNSGALTSGVHTFPAVLQSSGLYSLSSVVTVPSSNFGTQTYTCNVDHKPSNTKVDKTVERKSCVECPPCPAPPVAGPSVFLFPPKPKDTLMISRTPEVTCVVVDVSHEDPEVKFNWYVDGVEVHNAKTKPREEQYNSTYRVVSVLTVLHQDWLNGKEYKCKVSNKALPSSIEKTISKAKGQPREPQVYTLPPSREEMTKNQVSLTCLVKGFYPSDIAVEWESNGQPENNYKTTPPVLDSDGSFFLYSKLTVDKSRWQQGNVFSCSVMHEALHNHYTQKSLSLSPGK light: not shown	21	16.6	81	90.3	34	15.8	19	20.5	29.7	61.5	76.8	77.6			
CD73.4-IgG2.3-plusTHT (antibody, also called mAb-CD73.4-IgG2.3-plusTHT; CD73.4-Vh-hHC-IgG2.3-plusTHT) heavy: QVQLVESGGGVVQPGRSLRLSCAASGFTFSNYGMHWVRQAPGKGLEWVAVILYDGSNKYYPDSVKGRFTISRDNSKNTLYLQMNSLRAEDTAVYYCARGGSSWYPDSFDIWGQGTMVTVSSASTKGPSVFPLAPCSRSTSESTAALGCLVKDYFPEPVTVSWNSGALTSGVHTFPAVLQSSGLYSLSSVVTVPSSNFGTQTYTCNVDHKPSNTKVDKTVERKSCVETHTCPPCPAPPVAGPSVFLFPPKPKDTLMISRTPEVTCVVVDVSHEDPEVQFNWYVDGVEVHNAKTKPREEQFNSTFRVVSVLTVVHQDWLNGKEYKCKVSNKGLPAPIEKTISKTKGQPREPQVYTLPPSREEMTKNQVSLTCLVKGFYPSDIAVEWESNGQPENNYKTTPPMLDSDGSFFLYSKLTVDKSRWQQGNVFSCSVMHEALHNHYTQKSLSLSPGK light: not shown	21.3	17.6	81.2	91.4									30.6	33.7	3.2
CD73.4-IgG2.3-plusGGG (antibody, also called mAb-CD73.4-IgG2.3-plusGGG; CD73.4-Vh-hHC-IgG2.3-plusGGG) heavy: QVQLVESGGGVVQPGRSLRLSCAASGFTFSNYGMHWVRQAPGKGLEWVAVILYDGSNKYYPDSVKGRFTISRDNSKNTLYLQMNSLRAEDTAVYYCARGGSSWYPDSFDIWGQGTMVTVSSASTKGPSVFPLAPCSRSTSESTAALGCLVKDYFPEPVTVSWNSGALTSGVHTFPAVLQSSGLYSLSSVVTVPSSNFGTQTYTCNVDHKPSNTKVDKTVERKSCVEGGGCPPCPAPPVAGPSVFLFPPKPKDTLMISRTPEVTCVVVDVSHEDPEVQFNWYVDGVEVHNAKTKPREEQFNSTFRVVSVLTVVHQDWLNGKEYKCKVSNKGLPAPIEKTISKTKGQPREPQVYTLPPSREEMTKNQVSLTCLVKGFYPSDIAVEWESNGQPENNYKTTPPMLDSDGSFFLYSKLTVDKSRWQQGNVFSCSVMHEALHNHYTQKSLSLSPGK light: not shown	20.1	16.3	81.7	91.6											

Other lines, results leading:

T1/2 internalization, Calu6 [1] [min]	T1/2 internalization, NCI-H292 [1] [min]	Ymax internalization, Calu6 [1] [%]	Ymax internalization, NCI-H292 [1] [%]	T1/2 internalization, Calu6 [2] [min]	T1/2 internalization, NCI-H292 [2] [min]	T1/2 internalization, NCI-H1437 [2] [min]	T1/2 internalization, NCI-H1437 (no wash) [2] [min]	T1/2 internalization, SNU-C1 [2] [min]	T1/2 internalization, SNU-C1 (no wash) [2] [min]	Ymax internalization, Calu6 [2] [%]	Ymax internalization, NCI-H292 [2] [%]	UV % Peak1 <12.9 min [3] [%]	UV % Peak4 16.7-19.3 min (free mAb) [3] [%]	UV % Peak5 >19.3 min [3] [%]	Binder
21.2	18	79.6	90.9												CD73.4-IgG2.5G1.1f-KH (antibody, also called mAb-CD73.4-IgG2.5G1.1f-KH; CD73.4-Vh-hHC-IgG2.5G1.1f-KH) heavy: QVQLVESGGGVVQPGRSLRLSCAASGFTFSNYGMHWVRQAPGKGLEWVAVILYDGSNKYYPDSVKGRFTISRDNSKNTLYLQMNSLRAEDTAVYYCARGGSSWYPDSFDIWGQGTMVTVSSASTKGPSVFPLAPSSRSTSESTAALGCLVKDYFPEPVTVSWNSGALTSGVHTFPAVLQSSGLYSLSSVVTVPSSNFGTQTYTCNVDHKPSNTKVDKTVERKCCVECPPCPAPPVAGPSVFLFPPKPKDTLMISRTPEVTCVVVDVSHEDPEVKFNWYVDGVEVHNAKTKPREEQYNSTYRVVSVLTVLHQDWLNGKEYKCKVSNKALPSSIEKTISKAKGQPREPQVYTLPPSREEMTKNQVSLTCLVKGFYPSDIAVEWESNGQPENNYKTTPPVLDSDGSFFLYSKLTVDKSRWQQGNVFSCSVMHEALHNHYTQKSLSLSPGK light: not shown
20.9	18.3	79	89.6												CD73.4-IgG2.5 (antibody, also called mAb-CD73.4-IgG2.5; CD73.4-Vh-hHC-IgG2.5) heavy: QVQLVESGGGVVQPGRSLRLSCAASGFTFSNYGMHWVRQAPGKGLEWVAVILYDGSNKYYPDSVKGRFTISRDNSKNTLYLQMNSLRAEDTAVYYCARGGSSWYPDSFDIWGQGTMVTVSSASTKGPSVFPLAPSSRSTSESTAALGCLVKDYFPEPVTVSWNSGALTSGVHTFPAVLQSSGLYSLSSVVTVPSSNFGTQTYTCNVDHKPSNTKVDKTVERKCCVECPPCPAPPVAGPSVFLFPPKPKDTLMISRTPEVTCVVVDVSHEDPEVQFNWYVDGVEVHNAKTKPREEQFNSTFRVVSVLTVVHQDWLNGKEYKCKVSNKGLPAPIEKTISKTKGQPREPQVYTLPPSREEMTKNQVSLTCLVKGFYPSDIAVEWESNGQPENNYKTTPPMLDSDGSFFLYSKLTVDKSRWQQGNVFSCSVMHEALHNHYTQKSLSLSPGK light: not shown
23.8	16.8	81.6	91.6												CD73.4-IgG2.3G1-KH (antibody, also called mAb-CD73.4-IgG2.3G1-KH; CD73.4-Vh-hHC-IgG2.3G1-KH) heavy: QVQLVESGGGVVQPGRSLRLSCAASGFTFSNYGMHWVRQAPGKGLEWVAVILYDGSNKYYPDSVKGRFTISRDNSKNTLYLQMNSLRAEDTAVYYCARGGSSWYPDSFDIWGQGTMVTVSSASTKGPSVFPLAPCSRSTSESTAALGCLVKDYFPEPVTVSWNSGALTSGVHTFPAVLQSSGLYSLSSVVTVPSSNFGTQTYTCNVDHKPSNTKVDKTVERKSCVECPPCPAPPVAGPSVFLFPPKPKDTLMISRTPEVTCVVVDVSHEDPEVKFNWYVDGVEVHNAKTKPREEQYNSTYRVVSVLTVLHQDWLNGKEYKCKVSNKALPAPIEKTISKAKGQPREPQVYTLPPSREEMTKNQVSLTCLVKGFYPSDIAVEWESNGQPENNYKTTPPVLDSDGSFFLYSKLTVDKSRWQQGNVFSCSVMHEALHNHYTQKSLSLSPGK light: not shown
17.2	15.4	80.2	89.6												CD73.4-IgG2.5-plusTHT (antibody, also called mAb-CD73.4-IgG2.5plusTHT/LC; CD73.4-Vh-hHC-IgG2.5plusTHT/LC) heavy: QVQLVESGGGVVQPGRSLRLSCAASGFTFSNYGMHWVRQAPGKGLEWVAVILYDGSNKYYPDSVKGRFTISRDNSKNTLYLQMNSLRAEDTAVYYCARGGSSWYPDSFDIWGQGTMVTVSSASTKGPSVFPLAPSSRSTSESTAALGCLVKDYFPEPVTVSWNSGALTSGVHTFPAVLQSSGLYSLSSVVTVPSSNFGTQTYTCNVDHKPSNTKVDKTVERKCCVETHTCPPCPAPPVAGPSVFLFPPKPKDTLMISRTPEVTCVVVDVSHEDPEVQFNWYVDGVEVHNAKTKPREEQFNSTFRVVSVLTVVHQDWLNGKEYKCKVSNKGLPAPIEKTISKTKGQPREPQVYTLPPSREEMTKNQVSLTCLVKGFYPSDIAVEWESNGQPENNYKTTPPMLDSDGSFFLYSKLTVDKSRWQQGNVFSCSVMHEALHNHYTQKSLSLSPGK light: not shown
